Assay results from patent US20240360242A1 (KISOJI BIOTECHNOLOGY, published 2024).

T1: human TROP2 cysteine poor domain (CPD), recombinant (human, UniProt P09758 147-274)
T1 sequence: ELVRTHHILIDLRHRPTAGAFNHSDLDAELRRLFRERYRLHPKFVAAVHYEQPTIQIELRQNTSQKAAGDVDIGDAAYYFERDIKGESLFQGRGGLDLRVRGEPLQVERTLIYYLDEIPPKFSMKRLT

T2: HEK-TROP2 Δ27-66 (human, UniProt P09758)
T2 construct: deletion of residues 27-66, transiently expressed on HEK cells
T2 sequence (membrane protein on transfected HEK cells, looked up): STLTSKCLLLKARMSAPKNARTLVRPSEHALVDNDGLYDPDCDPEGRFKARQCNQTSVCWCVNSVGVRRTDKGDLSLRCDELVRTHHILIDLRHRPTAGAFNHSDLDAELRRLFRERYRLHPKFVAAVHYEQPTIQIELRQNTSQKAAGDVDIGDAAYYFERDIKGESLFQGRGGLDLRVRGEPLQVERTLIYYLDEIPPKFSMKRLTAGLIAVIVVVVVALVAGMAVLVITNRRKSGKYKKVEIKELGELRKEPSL

T3: HEK-TROP2 Δ27-146 (human, UniProt P09758)
T3 construct: deletion of residues 27-146, transiently expressed on HEK cells
T3 sequence (membrane protein on transfected HEK cells, looked up): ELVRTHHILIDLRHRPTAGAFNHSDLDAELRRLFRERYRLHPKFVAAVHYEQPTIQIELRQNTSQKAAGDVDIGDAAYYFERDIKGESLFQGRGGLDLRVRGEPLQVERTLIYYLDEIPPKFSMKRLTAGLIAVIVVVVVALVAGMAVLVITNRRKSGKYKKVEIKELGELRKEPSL

T4: recombinant human IGFBP-1 (human, UniProt P08833 26-259)
T4 construct: also called rhIGFB-1
T4 sequence (looked up): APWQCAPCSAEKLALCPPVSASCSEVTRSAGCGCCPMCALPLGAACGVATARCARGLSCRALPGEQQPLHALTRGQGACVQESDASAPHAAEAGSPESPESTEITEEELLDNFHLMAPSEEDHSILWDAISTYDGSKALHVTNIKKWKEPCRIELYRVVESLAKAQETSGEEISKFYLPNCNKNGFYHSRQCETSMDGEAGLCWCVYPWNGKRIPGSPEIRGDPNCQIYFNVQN


What was measured:
[1] = molecular target: T1, human TROP2 cysteine poor domain (CPD), …; experiment: immunoblot, 1 µg/mL antibody, anti-human IgG-HRP
Description: Samples of recombinant proteins of human TROP2 extracellular domain (ECD) (Sino Biological, Cat. no. 10428-H08H) and human TROP2 cysteine poor domain (CPD) were prepared for SDS-PAGE analysis under reducing or non-reducing conditions with NuPAGE™ LDS Sample Buffer (ThermoFisher Cat. no NP0007) with NuPAGE™ Sample Reducing Agent (ThermoFisher Cat. no. NP0004) or without reducing agent. Samples under reducing condition were denatured by heating at 70° C. for 10 minutes. Samples (16 μL) were loaded onto 4-12% Bis-Tris mini-gels (1.5 mm, 15 wells) or 250 ng of samples were loaded onto 14% Tris-glycine mini-gels alongside a BSA standard. […] Gels were stained using GelCode™ staining reagent (Thermo Fisher, Cat. no. 24594).
Proteins were transferred to nitrocellulose membranes using the iBlot™ system (Thermo Fisher, Cat. no. IB301031) according to the manufacturer's instructions. Membranes were blocked by incubation in PBS/0.1% Tween™ 20/5% Milk for 1 hour at room temperature with shaking, followed by incubation with 1 μg/mL of Anti-TROP2 antibodies or the isotype control (IgG1 isotype) in 20 mL of PBS/0.1% Tween™ 20/5% milk. Membranes were washed three times for 10 minutes with PBS/0.1% Tween™ 20. Membranes were incubated with HRP-conjugated goat anti-human IgG antibody (Sigma-Aldrich, AP113P) diluted at 1:10000 in blocking buffer for 1 hour at room temperature with shaking. Membranes were washed three times for 10 minutes with PBS/0.1% Tween™ 20. The signal was visualized using Super Signal™ West Pico PLUS (Thermo Fisher, Cat. no. 34080) according to the manufacturer's instructions. Images were captured using the Azure Biosystem imaging system.

[2] = molecular target: T2, HEK-TROP2 Δ27-66; experiment: flow cytometry, 100 nM antibody, transiently transfected HEK cells, APC anti-human Fc
Procedure, shortened: (§1)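 HEK parental cells transiently transfected (lipofectamine) with human TROP2 truncation mutants, harvested 24 h later and Fc-blocked 10 min at RT. Anti-TROP2 sdAbs at 100 nM bound 30 min on ice, then detected with APC anti-human Fc (30 min) and 7-AAD added for viability.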

[3] = molecular target: T3, HEK-TROP2 Δ27-146; experiment: as above
Procedure, shortened: as §1

[4] = molecular target: T4, recombinant human IGFBP-1; experiment: ELISA on coated recombinant protein, 200 nM antibody, RLU

binding result [1] | binding result [2] | binding result [3] | binding result [4] | Binder
no binding (tested: 1 µg/mL) | no binding (tested: 100 nM) | no binding (tested: 100 nM) | no binding (tested: 200 nM) | KD002 (antibody, human IgG1, V domains shown, also called anti-TROP2 sdAb KD002) VH: QVQLQESGGGMVQVGGSLRLSCAASGFPFSSADMSWVRQAPGKGPEWVSYINADGSKTYYPDSVKGRFTISRDNAKNTLYLLMNNLKPEDTALYRCARAKLTDTHYVEDYWGQGTQVTVSS
no binding (tested: 1 µg/mL) | no binding (tested: 100 nM) | no binding (tested: 100 nM) | no binding (tested: 200 nM) | KD003 (antibody, human IgG1, V domains shown, also called anti-TROP2 sdAb KD003) VH: QVQLQESGGGMVQPGGSLRLSCAASGFTFSNYDMSWVRQAPGKGPEWVSYINAGGSNTDYPDSVKGRFTISRDNAKNMLYLLMNNLKPEDTALYRCARAKLTDTHYVEDYWGQGTQVTVSS
no binding (tested: 1 µg/mL) | no binding (tested: 100 nM) | no binding (tested: 100 nM) | no binding (tested: 200 nM) | KD001 (antibody, human IgG1, V domains shown, also called anti-TROP2 sdAb KD001) VH: QVQLQESGGGMVHPGGSLRLSCAASGFTFSGSDMSWVRQAPGKGPEWVSYITSGGTTYYPDSVKGRFTISRDNAKNTLYLQMNSLTPDDTALYRCAKARLTDSHYVEDAWGQGTQVTVSS
no binding (tested: 1 µg/mL) | no binding (tested: 100 nM) | no binding (tested: 100 nM) | no binding (tested: 200 nM) | KD005 (antibody, human IgG1, V domains shown, also called anti-TROP2 sdAb KD005) VH: QVQLQESGGGLVEAGGSLRLSCAASGFTFSGSDMSWVRQAPGKGPEWVSYITSGGTTYYPDSVKGRFTISRDNAKNTLYLQMNSLKPDDTALYRCAKSRLTDSHYVEDAWGQGTQVTVSS
no binding (tested: 1 µg/mL) | no binding (tested: 100 nM) | no binding (tested: 100 nM) | no binding (tested: 200 nM) | KD004 (antibody, human IgG1, V domains shown, also called anti-TROP2 sdAb KD004) VH: QVQLQESGGGLVQPGRSLRLSCAASGFTFSGSDMSWVRQAPGKGPEWVSYITGSGTTYYPDSVKGRFTTSRDNAKNMLYLQMNSLKPDDTALYRCAKARLTDSHYVEDAWGQGTQVTVSS
